# Reference: the nanobody polyreactivity screen of Harvey et al. (2022)
# Experiment: yeast display, Sf9 membrane polyspecificity reagent, FACS + sequencing; frameworks hold sequencing errors
# Outline: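 Synthetic nanobody libraries on Saccharomyces cerevisiae BJ5465 were galactose-induced for 36–48 hours, stained 1 hour at 4 °C with 10% biotinylated, detergent-solubilized Sf9 membrane reagent and enriched on streptavidin microbeads. FACS then separated cells into low and high (top ~1%) gates by anti-HA (expression) and streptavidin (reagent binding) fluorescence. Genes were colony-PCR amplified, MiSeq 2 × 250 sequenced and CDR-length filtered. A clone's polyreactivity label is that of its gate of origin.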
row,Sequence,polyreactivity (PSR sort gate)
1,QVQLVESGGGLVQAGGSLRLSCAASGSTFQYYAMGWYSQAPGKERELVAAISYGGSRTYYADSVKGRFTISRDNAKNTVYLQMNSLKPEDTAVYYCAKEKYRALAPYYYWGQGTQVTVSS,high polyreactivity
2,QGQRVESGGGLVQAGGSLRLSCAASGRIFTFYAMGWYRPAPGKERELVAAITWGDGSTYYADSVKGRFTISRDNAKNTVYLQMNSLKPEDTAVYYCNKTYIDTTVYVVIMDYWGQGTQVTVSS,low polyreactivity
3,QVQLLESGGGLVQAGGSLRLSCAASGSTLLQYAMGWYRQAPGKEREFVAAISASGARTYYADSVKGRFTISRDNAKNTVYLQMNSLKPEETAVYYCAALTQRSSFDYWGQGTQVTVSS,high polyreactivity
4,QVHLVESGGGLVQAGGSLRLICAASGYIFQRNAMGWYRQAPGKEREFVAAITRSGGTTYYADSVKGRFTISRDNAKNTVYLQMNSLKPEDTAGYYCNAPRSDRSVYHYHYWGQGTQVTVSS,low polyreactivity
5,QDQQVESGGGLVQAGGSLRLSSAASGRTFGTYALGWYRQARGNERELVAAITKSGGSTYYADSVKGRFIISRDNAKNTVYLQMNSLKPEDTAVYYCAAAVPRYRVYYWGQGTQVTVSS,high polyreactivity
6,QVQLVESGGGLVQAGGSLRLSCDASGRTFYFYVMGWYRQAPGKERELVARISWSGGSTYYADSVKGRFTISRDNAKNTVYLQMNSLKPEDTAVYYCARQYKYPSSGEYDSWGQGTQVTVSS,low polyreactivity
7,QVQLVESGGGLVQAGGSLRLSCAASGSTFYYNTMGWYRQAPGKERELVAAITSGDTTYYADSVKGRFTISRDNAKNTVYLQMNSLKPEDTAVYYCAAAWPYARYDYWGQGTQVTVSS,low polyreactivity
8,QVQLVESAGGLVQAGGSLRLSCAASGFTFYTYGMGWYRQAPGKERALVAAITSGVSTNYADSVKGRFTISRDNAKNTVYLQMNSLKPEDTAVYYCNKVGRPAYRWYDYWGQDTQVTVSS,low polyreactivity
9,QVQLVESGGGLVQAGGSLRISCAASGRTLGAYALGWSRQAPGKERELVAVISRRGGSTYYADSVKGRFTISRVNAKNTVYLQMNSLKPEDSAVYYCARTTLLYRTLSPGEYWGQGTQVTVSS,high polyreactivity
10,QVQLVESGGGLVQAGGSLRLSCAASGSTFWYYVMGWYRQAPGKERELVAAIDWTGDSTYYADSVKGRFTISRDNAKNTVYLQMNSLKPVDTAVYYCAAQKYYPYSYYLNNDYWGLGTQVTVSS,low polyreactivity
11,QVQLVESGGGLVQAGGSLRLSCAASGRIFRYYAMGWYRQAPGKERELVAAISSGVGNTYYADSVKWRFTISRDNAKNTVYLQKNSLKPEDTAVYYCNAKWRKFGTVRYDYWGQGTQVTVSS,high polyreactivity
12,QVQLVESGGGLVQAGGSLRLSCAASGSIFSSNAMGWYRQAPGKERELVAAIDYSGGRTYYADSVKGRFTISRDNAKNTVYLQMNSLKPEDTAVYYCAKLIPVHSRYDYWGQGTQVTVSS,low polyreactivity
13,QVQLHESGGGLLQAGGGLRLSCAASGSISSTGFMCWYRQAPGKEREPVAAIAPGTTTYYADSVKGRFTISRDNAKNSVYLQKNSLRPEDTAVYYCAVFTDNRVAFLYWGQGTQVTVSS,low polyreactivity
14,QVQLVESGGGLVQAGGSLRLSCAASGRIFYRNAMGWYRQAPGTDRELVARITSSGGTTYYADSVKGRFTISRDNAKNTVYLQMNSLQPEDTAVYYCAARSVTQRKMYYWGQGTQVTVSS,high polyreactivity
15,QVQLVESGGGLVQAGGSLRLSCAASGLTSLSYAIGWYRQAPGKERELVAAITLSGCRTYYADSVKGRFTISRDNAKNTVYLQMNSLIPEDTAVYFCAVAGYWYSYGRKYLTTFEYWGQGTQVTVSS,high polyreactivity
16,QVQLVESGRGLVQAGGSLRLSCAASGRIFYRYVMGWYRQAPGKERELVAAITSSGGSTYYADSVKGRFTISRDNAKNTVYFQMNSLKPEDTAVYYCSADRYTRYRYNYWGQGTQVTVSS,high polyreactivity
17,QVQLVESGGGLVQAGGSLRLSCAASGFIFDYYAMGWYRQAPGKERELVATISSSGGSTYYADSVKGRFTISRDYAKKTVYLQMNSLKPEDTAVYYCATGYTWVADSWEYYYWGQGTQVTVSS,low polyreactivity
18,QVQLVESGGGLVQAGGSLRLSCAASGIIFWYYAMGWYRQAPGKERELVAAISSGGSTTYADSVKGRFTISRDNAKNTVYLQMNSLKPEDTAVYYCAAVWLSLFKVWVDTHEYDYWGQGTQVTVSS,low polyreactivity
19,QVQLVESGGGLVQAGGSLRLSCAASGRTSGRYALGWYRQAPGKERELVAAITSSGGSTYYADSVKGRFTISRDTAKNTVYLQMNSLKPEDTAVYYCAAYFRGTGLDRSYKYDYWGQGTQVTVSS,high polyreactivity
20,QVQLVESGGGLVQAGGSLRLSCAASGRIFTVYAMGWYRQAPGKERELVAAISGRGGRTYYADSVKGRFTISRDNAKNTVYLQMNSLKPEDTAVYYCNADTLTLTRPDGDIHTVWMDYWGQGTQVTVSS,low polyreactivity
21,QVQLVESGGGLVQAGGSLRLSCAASGSTFASNVMGWYRQAPGKERELVAAITRGDRTHYAHSVKGRFTISRDNAKNTVYLQMNSLKPEDPAVYYCAKVTTLGRSRDYWGQGTQVTVSS,low polyreactivity
22,QVQLVESGGGLVQAGGSLRLSCAASGSIFPLYVMGWYRQAPGKERELVAAISSAADTYYADSVKGRFTISRDNAKNTVYLQMNSLKPEDTAVYYCAAAVLYWVGYGYWGQGTQVTVSS,low polyreactivity

row,Sequence,polyreactivity (PSR sort gate)
1,QVQLVESGGGLVQAGGSLRLSCAASGSTLSFNAMGWYRQAPGKERELVAAITSSGGSTYYADSVKGRFTISRDNAKNTVYLQMKSLKPEDTAVYYCAADRYTVRMDYWGQGTQVTVSS,high polyreactivity
2,QVQLVESGGGLVQAGGSLRLSCAASGSTFYRYAMGWYRQAPGKERELVAAISTSGGRTYYADSVKGRFTISRDNAKNTVYLQMNSLKPEDTAVYYCAAPYQYGYWGQGTQVTVSS,high polyreactivity
3,QVQLVESGGGLVQAGGSLRLSCASSGSTFAPNAMGWYSQAPGKEREFVAAITYRGSSTYYADSVKGRFTISRDNAKNTVYLQMNSLKPEDTAVYYCAADYVEYKVRSYDYWGQGTQVTVSS,low polyreactivity
4,QVQLVESGGGLVQAGGSLRLSCAASGSIFQYNTMGWYRQAPGKERELVAAINWSGVSTYYADSVKGRFTISRDNAKNTVYLQMNSLKPEDTAVYYCNARRYVAGSYIYERGYWGQGTQVTVSS,high polyreactivity
5,QVQLVESGGGLVLAGGSLRLSCAASGRIFTNNVMGWYRQAPGKERELVAAISRSGGRTYYADSVKGRFTISRDNAKNTVYLQMNSLKPEDTAVYYCAAVYQKAATDKYESVYESYYWGQGTQVTVSS,high polyreactivity
6,QVQLVESGGGLVQAGGSLRLSCAASGSIFYWYAMGWYRQAPGKERELVAGITGRGGSTYYADSVKGRFTISRDNAKNTVYLQMNSLKPEDTAVYYCAARYTRWRYNYKDYDYWGQGTQVTVSS,high polyreactivity
7,QVQLVESGGGLVQAGGSLRLSCAASGNIISNNAMGWYRQAPGKERELVAAIDWSGGRTYYADSVKGRFTISRDNAKNNVYIQMNSLKPEDTAVYYCAAEIPFTYRGVFYEYYYWGQGTQVTLSS,high polyreactivity
8,QVQLVESGGGLVQAGGRLRLSCAASGSTSLYYAMGWYRQAPGKEREFVAAITWSGGSTYYADSGKGRFTITRDNAKNTVYLQMNSLKPEDTAVYYCAGRSYGYSAGYYWGQGTQVTVSS,high polyreactivity
9,QVQLVESGGGLVQAGGSLRLSCPASGIIFNDYAMGWYRQAPGKEREMVAAITSNGDNTYYADSVKGRFTISRDNAKNTVYLQMNSLKPEDTAVYYCAVDGSFAADFDNYLEEYGYWGQGTQVTVSS,low polyreactivity
10,QVQLVESGGGLVQAGGSLRLICAASGRIFRYNARGWYRQAPGKERELVAAISSGGSTNYADSVKGRFTTSRDNAKNTVYLQMNSLKPEDTAVYYCNAESVHRYPGWGYDYWGQGTQVTVSS,low polyreactivity
11,QVQLVETGGGLVQAGGTLRLSCAPSGYTIYFYALGWDIQAPGTERELVAAISGSGGRTYYADSVKGRFTISRDNAKNTVYLQMNSLKPEDTAVYYCAARKYKRIYRISSGIGYYWGQGTQVTVSS,high polyreactivity
12,QVQLVESGGGLVQAGGSLLLSCAASGITFGVYAMGWYRQAPGKERELVAAISVNGGSTYYADSVKGRFTISRDNAKNTVYLQMNSLNPQDTAVYSCAADVLYYIDDDSIIEYDYWGQGTQVTVSS,low polyreactivity
13,QVQLVESGGGLVQAGGSLRLSCAASGFTFWTYAMGWYRQAPGKERELVATISKRGGSTYYADSVKGRFTISRDNAMNTVYLQMNSLKPEVTAVYYCNRPSYGKEMDYWGQGTQVTVSS,high polyreactivity
14,QVQLVESGGGLVQAGGSLRLSCAASGFTFHKNAMGWYRQAPGKERELVAAITNRGGSTYYADSVKGRFTISRDNAKNTVYLQMNSLKPEDTAVYYCAAELRPYITYVGPRKKFYYWGQGTQVTVSS,high polyreactivity
15,QVQLVESGGGLVQAGGSLRLSCAASGRIFSYYAMGWYRQAPGKERELVAAITSGGSTYYADSVKGRFTISRDNAKNTVYLQMNSLKPEDTAVYYCNVVSDFRYYYWGQGTQVTVSS,low polyreactivity
16,QVQLVESGGGLVQAGGSLRLSCAASGSIFSPYAMGWYRQAPGKERELVAAISRSGRTHYADSVKGRFTISRDNAKNTVYLQMNSLKPEDTAVYYCAAGVVYGYYYWGQGTQVTVSS,high polyreactivity
17,QVQLVESGGGLVQAGGSLRLSCAASGSIFWPYAMGWYRPAPGKERELVATISWNGGSTYYADSVKGRFTISRDNAKNTVYLQMNSLKPEDTAVYYCAAEVYFNQYGGMDYWGQGTQVTVSS,low polyreactivity
18,QVQLVESGGGLVQAGGRLRLSCAASGFIFIRNAMGWYRQAPGKERELVAAITRSGGRTYYADSVKGRFTISRDKAKNTVYLQMNSLKPEDTAVYYCAADADAAWGQGTQVTVSS,high polyreactivity
19,QVQLVESGGGLVQAGGSLRLSCAASGITFLVYVMGWYIQAPGKERELVAAISSGGSTYYADSVKGRFTISRDKAKNTVYLQMNSLKPEDTAVYYCAAERKLYGLYDYWGQGTQVTVSS,low polyreactivity
20,QVQLQESGGGLVQAGGDLRLSCAASGNIFRDYIMGWYRQAPGKELEFVAGIDRGANTNYADSVKGRFTISRDNAKNTVYLQMNSLKPEDTAVYYCAVHTAIVPDFIYWGQGTQVTVSS,low polyreactivity
21,QVQLVESGGGLVQAGGSLRLSCAASGSNFKNNAMGWYRQAPGKEREFVASISKRGGSTYYADSVKGRFTISRDNAKNTVYLQMNSLKPEDTEVYYCAKTYWSYGWSHGDYGEFDYWGQGTQVTVSS,high polyreactivity
